In the DeepSol protein solubility set:

Assay: soluble on expression in E. coli; label from the status in PepcDB or PDB records

Row | Sequence | soluble on expression in E. coli
1 | MGGSVDFERWFKGPAAIYGGIEYQTPYQPLRLKVEYDSNDYSQDFPVTRGNVDMTQHTPWNFGVLYGLGDWGDIKVSYQRGDTLTLGVNLTTNFNDMKAIWRDEPITAYDESSNQSIDEVDWQRVNQQLNGNAGYEDNRIYADDDSVTLVATQTKYRDSDEAHDRASRIFANHVPETISTYRIIETNQSMPVSETLIDAAQYKKVANNEYFDAKVADASQTDEVTYSPSEHSLKSDNLDRWDYSVSPTLSQSIGSAESFYLYAVGINTAGSVWLTDKVQASGSLYFNLFDNYDKFNYITPPDGTSVPRVRTMFRAYVHENPVRMNNLQLTWFEEYGAGFYSQMYAGYLESMFGGIGSEVMYRPLNSNWAFGIDATYIKQRTPGDWFGFYEQDHQEGGDYGRDYTVVSSGVTGFATAYYAPQWSFLKNTLLKVGVGQFLAGDKGTRIDFSKQFDSGVIAGAYASFTDLSAEEFGEGSYTKGFYISIPFDIMTVKPSKNRANFNWQPLTRDGGQMLNKQHDLYELTDERSPWFTRKGLLEHHHHHH | not soluble
2 | MKTTTYNTDWAAEKTKIRSFFDEYYVDNEDGSGKAFPYRDQVFEIARRDKQAIVVNVDHIKESDIPDALELSEAITSNTKRYEVLFKDTISDMIQDYLGDKQAPVIDALDAYMFQRLHMDRNEGAANEEVSLQDKRKKYPPQLLQRFEVYFTTDDAAHETCVRNIKATEIGHLVSMKGVVIRATEVKPCVEVMTYTCDTCAAEVYQPVKGMQFTPPVNCPNKECVEAKANGRLHMQLRGSKFVKFQELKIQELSEQVPVGSIPRTMTVHVYGEMTRKCNTGNVVHVSGVFLPIMQSGFRPTGGLVADTYLEAHYINNLDDNPTFNGVQSAELEVLRRKGDNYETLAASIAPEIFGHVDVKKCLLMALVGGNDNSSNGMKIRGCINVLMMGDPGVAKSQLLGYVNRLAPRSQYTTGRGSSGVGLTAAVMKDPVTGEMSLEGGALVLADGGICCIDEFDKMMDHDRTAIHEVMEQQTISIAKAGIMTTLNARTAIIAAANPAYGRYNPNRSIEQNVDLPAALLSRFDLILLMQDKADRENDKILAEHITYVHQHGCHPNREKKDLISLETLREYISLCKTYTPTVDPALRERIVEAYVEMRRDARYSSDPTFVSPRMILGIVRMATARAKLRLSTIVDESDVEEALRLMQFAKDSLRPEQNKIEKRMAPVDAAFAVLRELYHADNAPIAISNAIQRCARKGISEVALKKCLDQYTANGLLVMDRQNIVFAMN | not soluble
3 | MGSDKIHHHHHHMSEQNLIEVRDLAVEFVTGDQVNRVVDGVSFDIRKGETLALVGESGSGKSVTAHSILRLLPYPLARHPSGSIRYEGKDLLQQSEKTLQRIRGNRIAMIFQEPMTSLNPLHCIEKQINEILLLHKGLTGKEATARTLELLDMVGIPEPRKRLKALPHELSGGQRQRVMIAMALANEPELLIADEPTTALDVTVQLKILELLKELQARMGMALLLISHDLNLVRRIAHRVCVMQRGQIVEQAECATLFSSPQHHYTQMLINAEPSGLPAHNPVGAPLLEVDDLKVWFPIKKGFLQRTVDHVKAVDGVNFSLPQGQTLGIVGESGSGKSTLGLAILRLISSQGGIRFHGQNLEGLNQKAVRPLRREMQVVFQDPFGSLSPRMCVADIVGEGLRIHRIGTAQEQEAAIIAALEEVGLDPRTRHRYPHEFSGGQRQRIAIARALVLKPALILLDEPTSALDRTVQRQVVELLRNLQQKYNLTYLFISHDLAVVKALSHQLMVIKHGHVVEQGDAQAIFHAPQHPYTRQLLEAAFLEVGG | not soluble
4 | MATAADSVYSIESPKAAKSLMLDVVHAGKRLVAVGDRGHILYSDDQGQTWVQAKVPTRQLLTAVYFVDDKRGWAVGHDAQVLASSDGGATWTRQFQDLKREAPLLDVWFKDTQTGYAVGAYGALLETSDGGQHWEDVSDRLDNEDQFHLNAIAQVKDSGLFIVGEQGSMFRSADDGQTWERLEGPYEGSLFGVIGTGQPATLLVYGLRGNLYRSTDFGSTWEQVELNAARGALEFGLSGATLLDDGSLVIVGNGGSVIRSTDHGQTFSVFNRADRISLSAVTAAGNGDLILAGQGGVRVSAATGAELGQLEHHHHHH | not soluble
5 | GPGSMKLLKFVNSDAPHTLADVQLRNQRLWFPCRHGNAAVAAKSWTLTAASPASVSGGYWLLDDDSQPICEITDVLLALPETAANAAGSSGTFAPRGVTDKDVDGIDFRSKMGRQMERERATYGATSKTATKSARTMMNAEEMTEKKNERMKREREAVAEAIEDNDASVMEPRKKERKHSKK | soluble
6 | MGSDKIHHHHHHMIQMFINLLETIPSLGRHSFQVAFLSAQIAEKMNLDPNVSFLSGLIHDLGLILPYEGKTLLDEIDDTFVIVRDTPGKPLHLHSILGSFITDYVEKLKPISPIVLKHHFPASYLDKTEENLISNIVFISDQVSRYTMINLDVSPRDILIALEDMKSFFFPEVFEACREVLNTEFVQWQLENILAGYDVTDLLDHHVRNCPDCDKKDLIQIGKIVSFIVDTKSEFTTSHTWRVAVFSEKMAEKAGRNSEDLFIAGLYHDIGKISVSYKILEKPAKLSDEEYAIMKKHVYFSYLILLPYKDENWFLPAVRHHERLDGYGYPFRLKGEEMTLEDKIIQVADVFSALLEERPYRPANTVEKALSMVREEVKKKKLSQEAFELLESSLEDFDLSSIEVGREIRKEIRTFVNRVVEKFGDYVL | not soluble
7 | MLEKFTVIRGKAVPLRGEDIDTDRILPARFMKVLTFEGLGQYLFYDERFDEKGNPKPHPLNDPRYRGATILLVESGFGSGSSREHAPQAIKRAGFKAIIGESFAEIFFGNATAIGLPCVSLAPEDLGVLFRSVEENPELEVEIDLVNKEVRFGDRTAPLFIREEAREALVEGLWDPIGELLEAGELLDQFDRKLPYPRRTE | soluble
8 | MGSDKIHHHHHHMTERELEILALLKQDPLIPQQELADRLGISRSAVAGHIMNLTNKGVIRGKGYILAEAKYAMVIGGANMDILGRPASSLRVGDSNPGSVSCSPGGVGRNIAENLARLGSDTRLMTAVGKDAYGQQIVEHCQRAGIDMKPSLQLSDGVTSTYLSVLDGDSDMHVAINDMAILERLGVEQLKSQQEMLKRASLAIIDANLSEAALAYLLSNFADIPLFVDTVSCAKAEKIKPYLGAVHTLKPNLKEAEQLSGISIANYGELPVLANWFHEQGVKRVFLSLGIDGVFYSDGEEQAHIPAIPVEMVNANGAGDAFLAGLAHGFMQGWSTRQSTEFAMAAAVVALSDLATINPNMSEISVNRVIKESLC | not soluble
9 | MSEDGEISLSPNSAALMDGLDDFIIDKNCSGIIPNEDLERETPSADDDAEVKTSSNWAKNMRKRMFGEQCDEPEESEKKRRRTNCCFNCRGGDHSIAQCPEPKNFAEIRKNKLEFMNDKQQQHQPTGRISQVTEQQQEAKFKPGRLSQNLRKALSLGPDDIPEWVYRMRRLGFYRGYPPGYLRKSLKREFATLKIYSEDHNQEEVDNDDDEEARPAPTIQSEKVHFYMGFNKTYGALRDRERGRFEVPPFDIFCEMLQTEVARDHEGTEKIRIREERHQRSELRKIREQQKEEEEQQQRDSAEKVEKEVTVDQTISEVAAAAAAVEEKPGTPEPVGRMGESISEFIGTPIFSRRDVTGTWIEDTVPSLEAFSVGIVPFEAKEEEKPRGIFKKIMSTLKGITGRNSGDDEMKKKE | not soluble
10 | MTGPTPTEAVDITVSVGGFKVGDQNYPINPKITFTNNTGQAIPGGTEFQFDIPVSAPDNAKDQSGGGLKVIASGHTRANNIGGLDGVMHRVSFSLPAWKDLPAGGTYELDMVYYLPISGPANYSVISGGKEFAFKFEQPDLPIGDLNAGTGGGGTTEPGSCDTAGLVTYPNLPQTDLEHHHHHH | soluble
11 | MGILDKVKNLLSQNADKVETVINKAGEFVDEQTQGNYSDAIHKLHDAASNVVGMSDQQS | soluble
12 | MGSDKIHHHHHHMQYIHVVNGDVAGNTLRQALAQAARPDPVVVLRDDLAVGPLVDVDSTGSIRSGFWQRVAPHTDIDFAAEMRQALDQLQKLRQSDMEIAIWHGQSAADQLMLRRVVFHLYQAPQRINEVAMDLRELELPPQAGLAAIGMYSPARLARRFSTIAPVSVLRLGRLGYEWQQNVRENADVRLWKGNTLVAAAYHSIDDIIMERAPSEWTPAAEVVGSVMGAIEGLLASDWFVFWRCRELISMGRMVLRGNADSLDTCELRRHVIASAE | not soluble
13 | MSLEISKQTSDLLLSLEKKKGTLPKFSVLRSIPRNRIIYGAPGTGKSNYLEREVGKIFGDNPYVFTRVTFFPGYTYGQFIGAYKPVPIYKKLSGEEEIFSSNFRDKMENFEPMIDYQFVPGPFIDVLIKALKNRYTNFILIIEEINRANAASVFGDIFQLLDRNKNGESDYPVTFGPDIMNYLARNGIKDEMIKLPSNFFIWATMNNADQGVLPLDTAFKRRWSFEYLELEKYRKAVDSWKLSLRYKGHNKVIMWNDFRDIINKRLKGKVPEDKLLGPFFLKESELWNQNVFKNKLLYYLKEDVFKHNPTIDFLNASTFSELIEKYDGSDNIFTFDIDDSSFVSDEGGSHHHHHH | soluble
14 | MGSSHHHHHHSSGLVPRGSHMAPIVETAKETNSDSSLYLDLMIKVLAGTVYEDPAHRENFSHRDSTYREEVRNEGRDWPANAHTMIGIKRLENIRQCVEDVIGNNVPGDLVETGVWRGGACILMRGILRAHDVRDRTVWVADSFQGIPDVGEDGYAGDRKMALHRRNSVLAVSEEEVRRNFRNYDLLDEQVRFLPGWFKDTLPTAPIDTLAVLRMDGDLYESTWDTLTNLYPKVSVGGYVIVDDYMMCPPCKDAVDEYRAKFDIADELITIDRDGVYWQRTR | soluble
15 | MGSDKIHHHHHHMKRKTKLDKKSKWVLDMKFGVSSLVFLPESLTSSMEKIAEHNFDAWEIVCEGTHYLSPKNIKYLMELRDRYEVEIVVHAPFSDLNPASMNERVRKLTVECIRDAIEGAFELDSEVVVVHPGYIPELWSNYVSEILDNNFSTLSEIVEIAEDYGIKIGLENMPNFRGVLGITPESLLEIVKDIDSKNLGITFDIGHANTAGNPAEFVEKLQNIGIGIIHVHAHDNNGYDDEHLKIGEGNINFIEVLEKLKEIGYDGVISIENKNIRDAVKSKEILKEYLEIVNEKVAEKEKIEE | not soluble
16 | YENIQNIEDFYRFINAHALAVVHIMRDNCTVCHAVLPQIQDLLKDYPKAQLGVINQSNVEEIAGELSIFTVPVDLIFLKGKEMHRQARFIDMQSFEKQLYMMQNAID | soluble
17 | MDNKVILVGGFHEIIELCEDNDIEIAGIIDNYLTNDTYWGYPIIGTDDKAKVLFETYKNVPVLITPDVPHVRYKLYHYYKSIGFQVASLISRDASISRSAIIGEGTIIQRGANLSSNIKIGQMVKVNTNANIMHDCLIGNYVTVAPNAVLLGKVEIDDKAYIGANATLLPSVKIGENVTVGAGSVVTKSVRLEHHHHHH | not soluble
18 | MGSDKIHHHHHHMAFDEMINADSSPRQPYSTYHQWYASQDRNRLIAKSKEAEKIFRKTGITFAVYGHADSSEKLIPFDLIPRIISGREWRRLAQGIEQRVIALNAFLDDIYHKQEIIRAGRIPRELVEKNDTFLPQMIGFRPPGGVYTHIVGTDIVRTGEDQYYVLEDNARTPSGVSYMLENRETMMQMFPELFHQNRVRPVENYPNLLRQSLSSLAPAGCEGKPRVAVLTPGIYNSAFYEHAFLADMMGVELVEGSDLRVIDGRVKMRTTRGYEAIDVLYRRVDDDFLDPLTFRPDSALGIPGIMDVYRAGNITIANAPGTGISDDKAIYSYMPEIVEFYTGRKPLLENVPTWRCSEPESLKYVLEHLAELVVKEVHGSGGYGMLVGPTATKKECAAFAEKLKSRPGNYIAQPTLSLSTVPIMVNKGIAPRHVDLRPYVLVSDKVQIIPGGLTRVALKEGSLVVNSSQGGGTKDTWVLED | not soluble
